According to patent publication US20240066131A1 (Protagonist Therapeutics, Inc., priority 2020, published 2024):
Starred links: 1 amine or outer side, 2 acyl side, 3 side chain; linkers in the order of their positions; H or OH if unused. Positions of bridges follow the written chain, without caps; N, C: chain ends. Non-standard residues stand in square brackets, D forms with d. Groups on a side chain read outwards from the residue. *: point of attachment. Gal = N6-(4-(galactopyranosyloxy)butanoyl) on the lysine side chain; C18 diacid = O=C(O)CCCCCCCCCCCCCCCCC(=O)*; Dip = N[C@H](C(=O)O)C(c1ccccc1)c1ccccc1; γGlu = O=C(O)[C@H](CCC(=O)[*:2])N[*:1]; Palmitoyl = CCCCCCCCCCCCCCCC(=O)*; Myristoyl = CCCCCCCCCCCCCC(=O)*; β3hF = N[C@H](CC(=O)O)Cc1ccccc1; Isovaleryl = CC(C)CC(=O)*; Dap = NC[C@H](N)C(=O)O; AEEA = NCCOCCOCC(=O)O; Ahx = NCCCCCC(=O)O

T1: human ferroportin (SLC40A1) fused in frame with GFP, stably expressed in HEK293 cells (human, UniProt Q9NP59 1-571)
T1 sequence (looked up): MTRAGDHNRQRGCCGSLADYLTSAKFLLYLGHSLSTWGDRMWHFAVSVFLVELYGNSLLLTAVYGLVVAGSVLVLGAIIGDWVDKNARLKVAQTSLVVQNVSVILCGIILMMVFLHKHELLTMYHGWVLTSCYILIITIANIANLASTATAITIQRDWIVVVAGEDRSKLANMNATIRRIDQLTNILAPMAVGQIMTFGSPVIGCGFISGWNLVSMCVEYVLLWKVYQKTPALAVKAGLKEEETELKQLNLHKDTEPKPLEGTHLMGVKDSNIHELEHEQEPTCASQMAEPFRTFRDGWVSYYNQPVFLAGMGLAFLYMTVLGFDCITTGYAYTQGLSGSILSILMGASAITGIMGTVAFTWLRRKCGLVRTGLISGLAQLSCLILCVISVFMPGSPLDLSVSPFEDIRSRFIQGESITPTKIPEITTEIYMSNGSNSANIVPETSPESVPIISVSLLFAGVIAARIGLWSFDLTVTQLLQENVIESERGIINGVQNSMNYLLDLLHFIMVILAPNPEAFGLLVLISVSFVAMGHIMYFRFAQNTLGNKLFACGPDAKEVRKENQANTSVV


Target: T1, human ferroportin (SLC40A1) fused in …
Assay: cell-based or functional assay

Binder	FPN IC50 [µM]
Isovaleryl-ETHFP[Dap]IK([AEEA-AEEA-γGlu-C18 diacid])FEPRSKGDK-NH2 (lactam 6-16; SMILES CC[C@H](C)[C@@H]1NC(=O)[C@@H](NC(=O)[C@@H]2CCCN2C(=O)[C@H](Cc2ccccc2)NC(=O)[C@H](Cc2c[nH]cn2)NC(=O)[C@@H](NC(=O)[C@H](CCC(=O)O)NC(=O)CC(C)C)[C@@H](C)O)CNC(=O)C[C@@H](C(=O)N[C@@H](CCCCN)C(N)=O)NC(=O)CNC(=O)[C@H](CCCCN)NC(=O)[C@H](CO)NC(=O)[C@H](CCCNC(=N)N)NC(=O)[C@@H]2CCCN2C(=O)[C@H](CCC(=O)O)NC(=O)[C@H](Cc2ccccc2)NC(=O)[C@H](CCCCNC(=O)COCCOCCNC(=O)COCCOCCNC(=O)CC[C@H](NC(=O)CCCCCCCCCCCCCCCCC(=O)O)C(=O)O)NC1=O) [Isovaleric Acid-E-T-H-F-P-Dap-I-[Lys(1PEG2_1PEG2_IsoGlu_C18_Diacid)]-F-E-P-R-S-K-G-D-K-NH2]	6.11
Isovaleryl-ETHFPDIK([AEEA-AEEA-γGlu-C18 diacid])FEPRSKG[Dap]K-NH2 (lactam 6-16; SMILES CC[C@H](C)[C@@H]1NC(=O)[C@@H](NC(=O)[C@@H]2CCCN2C(=O)[C@H](Cc2ccccc2)NC(=O)[C@H](Cc2c[nH]cn2)NC(=O)[C@@H](NC(=O)[C@H](CCC(=O)O)NC(=O)CC(C)C)[C@@H](C)O)CC(=O)NC[C@@H](C(=O)N[C@@H](CCCCN)C(N)=O)NC(=O)CNC(=O)[C@H](CCCCN)NC(=O)[C@H](CO)NC(=O)[C@H](CCCNC(=N)N)NC(=O)[C@@H]2CCCN2C(=O)[C@H](CCC(=O)O)NC(=O)[C@H](Cc2ccccc2)NC(=O)[C@H](CCCCNC(=O)COCCOCCNC(=O)COCCOCCNC(=O)CC[C@H](NC(=O)CCCCCCCCCCCCCCCCC(=O)O)C(=O)O)NC1=O) [Isovaleric Acid-E-T-H-F-P-D-I-[Lys(1PEG2_1PEG2_IsoGlu_C18_Diacid)]-F-E-P-R-S-K-G-Dap-K-NH2]	> 10
Isovaleryl-ETHFP[Dap]IK([AEEA-AEEA-γGlu-C18 diacid])FEPRSKGEK-NH2 (lactam 6-16; SMILES CC[C@H](C)[C@@H]1NC(=O)[C@@H](NC(=O)[C@@H]2CCCN2C(=O)[C@H](Cc2ccccc2)NC(=O)[C@H](Cc2c[nH]cn2)NC(=O)[C@@H](NC(=O)[C@H](CCC(=O)O)NC(=O)CC(C)C)[C@@H](C)O)CNC(=O)CC[C@@H](C(=O)N[C@@H](CCCCN)C(N)=O)NC(=O)CNC(=O)[C@H](CCCCN)NC(=O)[C@H](CO)NC(=O)[C@H](CCCNC(=N)N)NC(=O)[C@@H]2CCCN2C(=O)[C@H](CCC(=O)O)NC(=O)[C@H](Cc2ccccc2)NC(=O)[C@H](CCCCNC(=O)COCCOCCNC(=O)COCCOCCNC(=O)CC[C@H](NC(=O)CCCCCCCCCCCCCCCCC(=O)O)C(=O)O)NC1=O) [Isovaleric Acid-E-T-H-F-P-Dap-I-[Lys(1PEG2_1PEG2_IsoGlu_C18_Diacid)]-F-E-P-R-S-K-G-E-K-NH2]	> 10
Isovaleryl-ETHFPEIK([AEEA-AEEA-γGlu-C18 diacid])FEPRSKG[Dap]K-NH2 (lactam 6-16; SMILES CC[C@H](C)[C@@H]1NC(=O)[C@@H](NC(=O)[C@@H]2CCCN2C(=O)[C@H](Cc2ccccc2)NC(=O)[C@H](Cc2c[nH]cn2)NC(=O)[C@@H](NC(=O)[C@H](CCC(=O)O)NC(=O)CC(C)C)[C@@H](C)O)CCC(=O)NC[C@@H](C(=O)N[C@@H](CCCCN)C(N)=O)NC(=O)CNC(=O)[C@H](CCCCN)NC(=O)[C@H](CO)NC(=O)[C@H](CCCNC(=N)N)NC(=O)[C@@H]2CCCN2C(=O)[C@H](CCC(=O)O)NC(=O)[C@H](Cc2ccccc2)NC(=O)[C@H](CCCCNC(=O)COCCOCCNC(=O)COCCOCCNC(=O)CC[C@H](NC(=O)CCCCCCCCCCCCCCCCC(=O)O)C(=O)O)NC1=O) [Isovaleric Acid-E-T-H-F-P-E-I-[Lys(1PEG2_1PEG2_IsoGlu_C18_Diacid)]-F-E-P-R-S-K-G-Dap-K-NH2]	> 10
Ac-K([AEEA-AEEA-Ahx-C18 diacid])TH[Dip]PAI[dK][β3hF]-NH2 (SMILES CC[C@H](C)[C@H](NC(=O)[C@H](C)NC(=O)[C@@H]1CCCN1C(=O)[C@@H](NC(=O)[C@H](Cc1c[nH]cn1)NC(=O)[C@@H](NC(=O)[C@H](CCCCNC(=O)COCCOCCNC(=O)COCCOCCNC(=O)CCCCCNC(=O)CCCCCCCCCCCCCCCCC(=O)O)NC(C)=O)[C@@H](C)O)C(c1ccccc1)c1ccccc1)C(=O)N[C@H](CCCCN)C(=O)N[C@H](CC(N)=O)Cc1ccccc1) [Ac-[Lys(1PEG2_1PEG2_Ahx_C18_Diacid)]-T-H-[Dpa]-P-A-I-[(D)Lys]-[bhPhe]-NH2]	> 3
Isovaleryl-K([AEEA-AEEA-Ahx-C18 diacid])TH[Dip]PAI[dK][β3hF]-NH2 (SMILES CC[C@H](C)[C@H](NC(=O)[C@H](C)NC(=O)[C@@H]1CCCN1C(=O)[C@@H](NC(=O)[C@H](Cc1c[nH]cn1)NC(=O)[C@@H](NC(=O)[C@H](CCCCNC(=O)COCCOCCNC(=O)COCCOCCNC(=O)CCCCCNC(=O)CCCCCCCCCCCCCCCCC(=O)O)NC(=O)CC(C)C)[C@@H](C)O)C(c1ccccc1)c1ccccc1)C(=O)N[C@H](CCCCN)C(=O)N[C@H](CC(N)=O)Cc1ccccc1) [Isovaleric Acid-[Lys(1PEG2_1PEG2_Ahx_C18_Diacid)]-T-H-[Dpa]-P-A-I-[(D)Lys]-[bhPhe]-NH2]	1.28
Ac-K([AEEA-AEEA-γGlu-C18 diacid])TH[Dip]PAI[dK][β3hF]-NH2 (SMILES CC[C@H](C)[C@H](NC(=O)[C@H](C)NC(=O)[C@@H]1CCCN1C(=O)[C@@H](NC(=O)[C@H](Cc1c[nH]cn1)NC(=O)[C@@H](NC(=O)[C@H](CCCCNC(=O)COCCOCCNC(=O)COCCOCCNC(=O)CC[C@H](NC(=O)CCCCCCCCCCCCCCCCC(=O)O)C(=O)O)NC(C)=O)[C@@H](C)O)C(c1ccccc1)c1ccccc1)C(=O)N[C@H](CCCCN)C(=O)N[C@H](CC(N)=O)Cc1ccccc1) [Ac-[Lys(1PEG2_1PEG2_IsoGlu_C18_Diacid)]-T-H-[Dpa]-P-A-I-[(D)Lys]-[bhPhe]-NH2]	3.37
Isovaleryl-K([AEEA-AEEA-γGlu-C18 diacid])TH[Dip]PAI[dK][β3hF]-NH2 (SMILES CC[C@H](C)[C@H](NC(=O)[C@H](C)NC(=O)[C@@H]1CCCN1C(=O)[C@@H](NC(=O)[C@H](Cc1c[nH]cn1)NC(=O)[C@@H](NC(=O)[C@H](CCCCNC(=O)COCCOCCNC(=O)COCCOCCNC(=O)CC[C@H](NC(=O)CCCCCCCCCCCCCCCCC(=O)O)C(=O)O)NC(=O)CC(C)C)[C@@H](C)O)C(c1ccccc1)c1ccccc1)C(=O)N[C@H](CCCCN)C(=O)N[C@H](CC(N)=O)Cc1ccccc1) [Isovaleric Acid-[Lys(1PEG2_1PEG2_IsoGlu_C18_Diacid)]-T-H-[Dpa]-P-A-I-[(D)Lys]-[bhPhe]-NH2]	2.16
Isovaleryl-K(GalNH)TH[Dip]PAIK([Ahx-Palmitoyl])[β3hF]-NH2 [Isovaleric Acid-[Lys(GalNH-T-H-[Dpa]-P-A-I-[Lys(Ahx_Palm)]-[bhPhe]-NH2]	0.15
Isovaleryl-K(Gal)TH[Dip]PK([Ahx-Palmitoyl])[β3hF]-NH2 [Isovaleric Acid-[Lys(Gal-T-H-[Dpa]-P-[Lys(Ahx_Palm)]-[bhPhe]-NH2]	0.758
Isovaleryl-ETHFPAIK([Ahx-Myristoyl])FEPRSKGAK-NH2 [Isovaleric Acid-E-T-H-F-P-A-I-[Lys(Ahx_C14_acid)]-F-E-P-R-S-K-G-A-K-NH2]	0.689
Isovaleryl-ETHFPAIK([Ahx-C12 acid])FEPRSKGAK-NH2 [Isovaleric Acid-E-T-H-F-P-A-I-[Lys(Ahx_C12_acid)]-F-E-P-R-S-K-G-A-K-NH2]	1.07
Isovaleryl-ETHFPAIK([Ahx-C10 acid])FEPRSKGAK-NH2 [Isovaleric Acid-E-T-H-F-P-A-I-[Lys(Ahx_C10_acid)]-F-E-P-R-S-K-G-A-K-NH2]	> 3
Isovaleryl-ETHFPAIK([Ahx-Myristoyl])FEPRSKGA[dK]-NH2 (SMILES CCCCCCCCCCCCCC(=O)NCCCCCC(=O)NCCCC[C@H](NC(=O)[C@@H](NC(=O)[C@H](C)NC(=O)[C@@H]1CCCN1C(=O)[C@H](Cc1ccccc1)NC(=O)[C@H](Cc1c[nH]cn1)NC(=O)[C@@H](NC(=O)[C@H](CCC(=O)O)NC(=O)CC(C)C)[C@@H](C)O)[C@@H](C)CC)C(=O)N[C@@H](Cc1ccccc1)C(=O)N[C@@H](CCC(=O)O)C(=O)N1CCC[C@H]1C(=O)N[C@@H](CCCNC(=N)N)C(=O)N[C@@H](CO)C(=O)N[C@@H](CCCCN)C(=O)NCC(=O)N[C@@H](C)C(=O)N[C@H](CCCCN)C(N)=O) [Isovaleric Acid-E-T-H-F-P-A-I-[Lys(Ahx_C14_acid)]-F-E-P-R-S-K-G-A-[(D)Lys]-NH2]	1.16
Isovaleryl-ETHFPAIK([Ahx-Myristoyl])FEPRSKG[dA]-NH2 (SMILES CCCCCCCCCCCCCC(=O)NCCCCCC(=O)NCCCC[C@H](NC(=O)[C@@H](NC(=O)[C@H](C)NC(=O)[C@@H]1CCCN1C(=O)[C@H](Cc1ccccc1)NC(=O)[C@H](Cc1c[nH]cn1)NC(=O)[C@@H](NC(=O)[C@H](CCC(=O)O)NC(=O)CC(C)C)[C@@H](C)O)[C@@H](C)CC)C(=O)N[C@@H](Cc1ccccc1)C(=O)N[C@@H](CCC(=O)O)C(=O)N1CCC[C@H]1C(=O)N[C@@H](CCCNC(=N)N)C(=O)N[C@@H](CO)C(=O)N[C@@H](CCCCN)C(=O)NCC(=O)N[C@H](C)C(N)=O) [Isovaleric Acid-E-T-H-F-P-A-I-[Lys(Ahx_C14_acid)]-F-E-P-R-S-K-G-[(D)Ala]-NH2]	1.07
Isovaleryl-ETHFPAIK([Ahx-Myristoyl])FEPR[dS]-NH2 (SMILES CCCCCCCCCCCCCC(=O)NCCCCCC(=O)NCCCC[C@H](NC(=O)[C@@H](NC(=O)[C@H](C)NC(=O)[C@@H]1CCCN1C(=O)[C@H](Cc1ccccc1)NC(=O)[C@H](Cc1c[nH]cn1)NC(=O)[C@@H](NC(=O)[C@H](CCC(=O)O)NC(=O)CC(C)C)[C@@H](C)O)[C@@H](C)CC)C(=O)N[C@@H](Cc1ccccc1)C(=O)N[C@@H](CCC(=O)O)C(=O)N1CCC[C@H]1C(=O)N[C@@H](CCCNC(=N)N)C(=O)N[C@H](CO)C(N)=O) [Isovaleric Acid-E-T-H-F-P-A-I-[Lys(Ahx_C14_acid)]-F-E-P-R-[(D)Ser]-NH2]	1.16
Isovaleryl-ETHFPAIK([γGlu-Myristoyl])FEPRSKGAK-NH2 [Isovaleric Acid-E-T-H-F-P-A-I-[Lys(IsoGlu_C14_acid)]-F-E-P-R-S-K-G-A-K-NH2]	0.822
